*1 amine or outer side, *2 acyl side, *3 side chain or, on linkers, in order; H or OH if unused. Glutaryl = O=C(CCCC(=O)[*:2])[*:1]; Suc = O=C(CCC(=O)[*:2])[*:1]
B1: CHP-028, pre-cyclic peptidomimetic CO-(CH2)2-CO2H KTGDEK-K-GG-…-NH2 (peptide)
peptide: Suc-KTGDEKKGGYGRKKRRQRRR-NH2
SMILES: C[C@@H](O)[C@H](NC(=O)[C@H](CCCCN)NC(=O)CCC(=O)O)C(=O)NCC(=O)N[C@@H](CC(=O)O)C(=O)N[C@@H](CCC(=O)O)C(=O)N[C@@H](CCCCN)C(=O)N[C@@H](CCCCN)C(=O)NCC(=O)NCC(=O)N[C@@H](Cc1ccc(O)cc1)C(=O)NCC(=O)N[C@@H](CCCNC(=N)N)C(=O)N[C@@H](CCCCN)C(=O)N[C@@H](CCCCN)C(=O)N[C@@H](CCCNC(=N)N)C(=O)N[C@@H](CCCNC(=N)N)C(=O)N[C@@H](CCC(N)=O)C(=O)N[C@@H](CCCNC(=N)N)C(=O)N[C@@H](CCCNC(=N)N)C(=O)N[C@@H](CCCNC(=N)N)C(N)=O
B2: CHP-027, pre-cyclic peptidomimetic CO-(CH2)3-CO2H KTGDEK-K-GG-…-NH2 (peptide)
peptide: Glutaryl-KTGDEKKGGYGRKKRRQRRR-NH2
SMILES: C[C@@H](O)[C@H](NC(=O)[C@H](CCCCN)NC(=O)CCCC(=O)O)C(=O)NCC(=O)N[C@@H](CC(=O)O)C(=O)N[C@@H](CCC(=O)O)C(=O)N[C@@H](CCCCN)C(=O)N[C@@H](CCCCN)C(=O)NCC(=O)NCC(=O)N[C@@H](Cc1ccc(O)cc1)C(=O)NCC(=O)N[C@@H](CCCNC(=N)N)C(=O)N[C@@H](CCCCN)C(=O)N[C@@H](CCCCN)C(=O)N[C@@H](CCCNC(=N)N)C(=O)N[C@@H](CCCNC(=N)N)C(=O)N[C@@H](CCC(N)=O)C(=O)N[C@@H](CCCNC(=N)N)C(=O)N[C@@H](CCCNC(=N)N)C(=O)N[C@@H](CCCNC(=N)N)C(N)=O

Key:
[1] = target: Heat shock protein 90 (Hsp90), protein immobilised on the FEB chip (UniProt P07900); assay: field effect biosensing
[2] = target: Heat shock protein 90 (Hsp90), protein immobilised on the FEB chip (UniProt P07900); assay: field effect biosensing; remark: listed apart in the source

Row | Molecule | KD in the presence of CHP-028 (competitive binding) [1] [µM] | Kd [2] [µM]
1 | Cell division cycle 37 (Cdc37), analyte protein in FEB (from UniProt Q16543 1-378) (natural protein) | 2.78 | –
2 | B1 | – | 16.4
3 | B2 | – | 30
4 | Ac-KTGDEKKGGYGRKKRRQRRR-NH2 [CHP-026, linear peptide CH3-CO-KTGDEK-K-GG-…-NH2] | – | 342
